Legend:
[1] = molecular target: C6B/CV2 one-armed SEEDbody; assay: BLI; C6B oaSEEDbody on anti-Fab tips; association with 100 nM CEACAM6 at pH 7.4, dissociation at pH 5.0
[2] = molecular target: C6B/IGKV3-15*01 one-armed SEEDbody; assay: as above
[3] = molecular target: C6B/CV2 one-armed SEEDbody; assay: BLI; C6B oaSEEDbody on anti-Fab tips; association with 100 nM CEACAM6 at pH 7.4, dissociation at pH 6.0
[4] = molecular target: C6B/IGKV3-15*01 one-armed SEEDbody; assay: as above
[5] = molecular target: C6B/CV2 one-armed SEEDbody; assay: BLI; C6B oaSEEDbody on anti-Fab tips; association with 100 nM CEACAM6 at pH 7.4, dissociation at pH 7.4; 1:1 model
[6] = molecular target: C6B/IGKV3-15*01 one-armed SEEDbody; assay: as above
[7] = molecular target: C5A + CV1 one-armed SEEDbody; assay: BLI; oaSEEDbody on anti-human Fc (AHC) tips; association with 100 nM CEACAM5 at pH 7.4, dissociation at pH 7.4 in kinetic buffer (PBS, 0.1% Tween 20, 1% BSA); 30 C; 1:1 model
[8] = molecular target: C5A + CV2 one-armed SEEDbody; assay: as above
[9] = molecular target: C5A + CV3 one-armed SEEDbody; assay: as above
[10] = molecular target: C5A + IGKV3-15*01 one-armed SEEDbody; assay: as above
[11] = molecular target: C5A + K39 one-armed SEEDbody; assay: as above
[12] = molecular target: C5A + K40 one-armed SEEDbody; assay: as above

Chain of CEACAM6 (P40199 35-320): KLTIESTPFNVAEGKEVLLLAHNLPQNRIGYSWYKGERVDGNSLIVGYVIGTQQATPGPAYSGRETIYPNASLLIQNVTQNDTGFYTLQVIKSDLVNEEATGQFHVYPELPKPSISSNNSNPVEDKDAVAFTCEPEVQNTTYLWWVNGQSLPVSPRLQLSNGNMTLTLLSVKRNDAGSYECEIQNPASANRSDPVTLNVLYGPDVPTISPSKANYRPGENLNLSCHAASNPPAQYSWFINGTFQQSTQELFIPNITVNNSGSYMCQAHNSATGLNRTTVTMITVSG

Substance | koff [1] | koff [2] | koff [3] | koff [4] | Kd [5] | koff [5] | Kd [6] | koff [6] | Kd [7] | Kd [8] | Kd [9] | Kd [10] | Kd [11] | Kd [12]
CEACAM6 (from UniProt P40199 35-320) (natural protein) | 0.000768 s⁻¹ | 0.000361 s⁻¹ | 0.000142 s⁻¹ | 0.00019 s⁻¹ | 7.73 nM | 0.000262 s⁻¹ | 8.77 nM | 0.000158 s⁻¹ | – | – | – | – | – | –
recombinant human His-tagged CEACAM5 (from UniProt P06731 35-685) (natural protein) | – | – | – | – | – | – | – | – | 4.11 nM | 4.14 nM | 2.55 nM | 0.9 nM | 4.16 nM | 3.12 nM
